We go through two molecules from US20240343803A1 (SHANDONG SIMCERE BIOPHARMACEUTICAL, published 2024).

Test [1] concerns the target T1, human TIGIT ECD-mFc (fusion protein of extracellular domain of human TIGIT and mouse IgG2a Fc fragment) (human).
T1 chain: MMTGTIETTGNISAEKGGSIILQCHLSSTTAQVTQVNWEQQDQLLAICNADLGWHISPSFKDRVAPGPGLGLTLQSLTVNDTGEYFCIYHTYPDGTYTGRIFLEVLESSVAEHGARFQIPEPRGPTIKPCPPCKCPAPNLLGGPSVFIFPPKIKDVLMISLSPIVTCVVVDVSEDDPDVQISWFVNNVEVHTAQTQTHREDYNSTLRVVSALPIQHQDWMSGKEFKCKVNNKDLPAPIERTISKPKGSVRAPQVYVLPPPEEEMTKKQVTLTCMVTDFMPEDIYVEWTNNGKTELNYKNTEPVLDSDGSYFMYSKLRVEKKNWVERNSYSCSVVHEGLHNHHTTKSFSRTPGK
The experiment in a line: FACS, competition: hTIGIT ECD-mFc to CHO-K1 CD155. As for the experimental part:
The collected CHO-K1 CD155 cells were washed once with PBS (Hyclone, CAT #SH30256) and resuspended to 2×10⁵/40 μL with 1% BSA-PBS. The tested antibodies were diluted to 600 nM with 1% BSA-PBS (diluted by 2.5-fold serial dilution for 12 concentration points). The TIGIT ECD-mFc was diluted with 1% BSA-PBS to 6 μg/mL. The 40 μL cells were then mixed with 40 μL diluted antibodies and 40 μL diluted TIGIT ECD-mFc, and then incubated at 4° C. for 60 minutes. […] The cell samples were washed twice with PBS, resuspended to 100 μL/well with 1% BSA-PBS and then analyzed by flow cytometry (BD, Canto II).
For orientation: Flow cytometry measures light scatter and fluorescence of single cells or particles in a stream.

For test [2], the target named is T2, full-length cynomolgus monkey TIGIT on CHO-K1 cells (CHO-K1 cynomolgus monkey TIGIT) (cynomolgus monkey).
T2 construct: NCBI XP_015300911.1; also called cynomolgus monkey TIGIT cells
T2 sequence (chain, as listed by the source limits assumed): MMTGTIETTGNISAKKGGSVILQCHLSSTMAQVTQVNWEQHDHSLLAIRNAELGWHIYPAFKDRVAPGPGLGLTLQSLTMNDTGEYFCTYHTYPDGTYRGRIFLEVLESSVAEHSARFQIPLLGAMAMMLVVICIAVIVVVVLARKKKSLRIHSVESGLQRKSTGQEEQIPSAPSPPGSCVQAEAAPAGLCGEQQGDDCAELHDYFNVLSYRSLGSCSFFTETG
Briefly: FACS, CHO-K1 cynomolgus monkey TIGIT cells. How it is done: (§1) The collected cells were washed once with PBS (Hyclone, Cat NO. SH30256), resuspended to 2×10⁵/50 μL with 1% BSA-PBS. The antibodies were diluted to 80 nM with 1% BSA-PBS (diluted by 3-fold serial dilution for 12 concentration points). The 50 μL cells were then mixed with 50 μL diluted antibodies, and then incubated at 4° C. for 60 minutes. […] After washing twice with PBS, the cell samples were resuspended with 1% BSA-PBS, 100 μL/well and then analyzed by flow cytometry (BD, Canto II).

Test [3] has as its target T3, full-length human TIGIT on CHO-K1 cells (CHO-K1 human TIGIT) (human, UniProt Q495A1 22-244).
T3 construct: NCBI XP_024309156.1; entry includes the signal peptide; also called high expression strain 1D2; medium expression strain 2D10
T3 sequence: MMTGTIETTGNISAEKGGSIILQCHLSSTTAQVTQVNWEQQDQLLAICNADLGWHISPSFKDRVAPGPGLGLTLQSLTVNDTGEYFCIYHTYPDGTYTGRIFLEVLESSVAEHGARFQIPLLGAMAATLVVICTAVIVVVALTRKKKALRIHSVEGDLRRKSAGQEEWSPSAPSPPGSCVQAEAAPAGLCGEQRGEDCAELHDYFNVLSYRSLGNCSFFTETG
Briefly: FACS, competition: Bio-CD155-His to CHO-K1 human TIGIT. As for the experimental part:
The collected cells were washed once with PBS (Hyclone, CAT #SH30256), resuspended to 2×10⁵/40 μL with 1% BSA-PBS. The antibodies were diluted to 210 nM with 1% BSA-PBS (diluted by 3-fold serial dilution for 12 concentration points). […] The 40 μL cells were then mixed with 40 μL diluted antibodies and 40 μL diluted Bio-CD155-His, and then incubated at 4° C. for 60 minutes. The cells were washed twice with PBS, resuspended with APC labeled streptavidin (dilution ratio 1:1700, Biolegend, 405243), 100 μL/well, and incubated at 4° C. for 40 minutes. The cell samples were washed twice with PBS, resuspended with 1% BSA-PBS, 100 μL/well and then analyzed by flow cytometry (BD, Canto II). […] [0300] (d) The effect of anti-TIGIT chimeric antibodies blocking the interaction between TIGIT ECD-mFc and CHO-K1 CD155 detected by FACS

Test [4] addresses T3, full-length human TIGIT on CHO-K1 cells …. The experiment in a line: FACS, CHO-K1 human TIGIT high expression strain. As for the experimental part: as §1
Test [5] shares this target. Briefly: FACS, CHO-K1 human TIGIT medium expression strain. How it is done: as §1
Test [6] concerns the target T4, Fusion protein of extracellular domain of human TIGIT and His-tag (human TIGIT ECD-his) (human).
T4 chain: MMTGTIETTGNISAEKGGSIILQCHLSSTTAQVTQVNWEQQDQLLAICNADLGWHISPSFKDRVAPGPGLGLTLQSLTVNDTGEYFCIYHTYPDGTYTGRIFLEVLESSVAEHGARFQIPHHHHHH
The experiment in a line: BIAcore; KD ratio, by the numbers to TIGIT-005-H2L1 of r33. (In general: Surface plasmon resonance follows binding to a sensor surface in real time, without labels.)

B1: RG6058-hIgG1 (antibody, V domains shown)
VH: EVQLQQSGPGLVKPSQTLSLTCAISGDSVSSNSAAWNWIRQSPSRGLEWLGKTYYRFKWYSDYAVSVKGRITINPDTSKNQFSLQLNSVTPEDTAVFYCTRESTTYDLLAGPFDYWGQGTLVTVSS
VL: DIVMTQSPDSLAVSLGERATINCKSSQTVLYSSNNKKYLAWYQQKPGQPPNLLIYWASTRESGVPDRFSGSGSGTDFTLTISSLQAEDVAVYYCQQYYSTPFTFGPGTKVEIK
notes: human IgG1 format by its name; also called Roche RG6058; control antibody RG6058
One may read the IC50 as the concentration at which inhibition is half-maximal. By EC50 (read off the curve) is commonly meant the concentration needed to bring the measured effect to its halfway point. Consider B1, for which the IC50 is 0.566 nM in test [1] and 0.388 nM in test [3]. Moreover, the “EC50 (read off the curve)” value in test [2] was around 1 nM; in test [4], around 0.6 nM; in test [5], around 0.4 nM.

B2: TIGIT-005-H2L1d (antibody, V domains shown)
VH: EVQLVQSGAEVKKPGASVKVSCKASGYAFTNYLIEWVRQAPGQRLEWMGVINPGSGGTNYKEKFKGRVTITADKSSSTAYMELSSLRSEDTAVYYCARGEYFFFDYWGQGTTVTVSS
VL: DIVMTQSPDSLAVSLGERATINCKASQHVSNAVAWYQHKPGQSPKLLIYSASYRYTGVPDRFSGSGSGTDFTLTISSLQAEDVAVYYCQQHYNTPHTFGGGTKVEIK
notes: Humanized anti-TIGIT antibody with NG-site mutation in VL
B2: the “Fold change vs chimeric antibodies (KD)” value in test [6] worked out at 1.21 fold.
